Source: patent US20260055369A1, “METHOD FOR GENERATING CELLS OF THE T CELL LINEAGE WITH ENGINEERING BROADLY REACTIVE HUMAN NOTCH LIGAND” (H. Lee Moffitt Cancer Center and Research Institute, Inc., priority 2022, published 2026)

Tests used:
Notch2 (EGF6-13) = molecular target: T1, Notch2 (EGF6-13) (Homo sapiens, UniProt Q04721); experiment: SPR determination of equilibrium dissociation constants; assay type: binding
T1 construct: hNotch2 (EGF6-13, residues 221-530); gp67 signal peptide (N); made in house; host or cells: HiFive Trichoplusia ni insect cells (baculovirus)
T1 sequence (Q04721 221-530): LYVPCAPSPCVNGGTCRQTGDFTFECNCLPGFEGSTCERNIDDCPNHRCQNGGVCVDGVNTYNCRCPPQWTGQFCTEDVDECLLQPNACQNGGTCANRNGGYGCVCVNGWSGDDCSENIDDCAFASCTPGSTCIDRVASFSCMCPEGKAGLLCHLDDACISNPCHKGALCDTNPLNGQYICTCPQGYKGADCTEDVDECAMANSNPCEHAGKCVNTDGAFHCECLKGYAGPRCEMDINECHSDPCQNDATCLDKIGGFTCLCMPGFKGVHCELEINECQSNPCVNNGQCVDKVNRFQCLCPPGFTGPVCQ
Procedure: (§1) Equilibrium dissociation constants were determined by surface plasmon resonance using a Biacore T200 instrument (GE Healthcare). Approximately 100 resonance units (RU) of biotinylated Notch extracellular fragments (Notch1 (EGF6-13), Notch2 (EGF6-13), Notch3 (EGF5-12), Notch4 (7-12), and mouse Notch1 (EGF6-13)) were immobilized on individual flow cells at 5 μl/min using a streptavidin-coated sensor chip (Series S Sensor chip SA, GE Healthcare). Three-fold serial dilutions of recombinant DLL4 proteins (N-EGF5) starting at 50 μM (WT DLL4), 18 μM (DLL4.v2), and 6 μM (DLL4.v1 and Delta^MAX) were flowed over the chip at 25° C. in SPR buffer (20 mM HEPES pH 7.4, 150 mM NaCl, 1 mM calcium chloride, 0.1% BSA supplemented with 0.005% surfactant P20). Association (“on-rate”) and dissociation (“off-rate”) phases were performed at 10 μl/min for 120 seconds and 300 seconds, respectively. The sensor chip was regenerated after each injection with 30-second washes of 2.25M Magnesium Chloride containing 25% Ethylene Glycol at 50 μL/min. Data collection rate was performed at 10 Hz, and curves were reference-subtracted from a flow cell containing 100 RU of a negative control non-related protein (biotinylated mouse RNF43 PA domain). The maximum RU for each experiment was normalized to a value of 100% and plotted as a function of concentration using Prism 9 software (GraphPad). Steady-state binding and kinetic curves were fitted using the Biacore T200 evaluation software to a 1:1 Langmuir model to determine the KD values.

Notch3 (EGF5-12) = molecular target: T2, Notch3 (EGF5-12) (Homo sapiens, UniProt Q9UM47); experiment: as above; assay type: binding
T2 construct: hNotch3 (EGF5-12, residues 197-505); gp67 signal peptide (N); made in house; host or cells: HiFive Trichoplusia ni insect cells (baculovirus)
T2 sequence (Q9UM47 197-505): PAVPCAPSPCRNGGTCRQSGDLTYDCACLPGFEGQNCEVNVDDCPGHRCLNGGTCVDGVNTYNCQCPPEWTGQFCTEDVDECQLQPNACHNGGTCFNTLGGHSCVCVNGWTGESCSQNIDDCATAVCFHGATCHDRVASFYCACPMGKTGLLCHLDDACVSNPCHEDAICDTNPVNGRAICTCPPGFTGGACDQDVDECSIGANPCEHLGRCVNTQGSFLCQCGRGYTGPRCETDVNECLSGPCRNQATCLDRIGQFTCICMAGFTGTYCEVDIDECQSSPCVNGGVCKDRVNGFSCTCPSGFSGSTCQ
Procedure: as §1

Notch4 (7-12) = molecular target: T3, Notch4 (7-12) (Homo sapiens, UniProt Q99466); experiment: as above; assay type: binding
T3 construct: hNotch4 (EGF7-12, residues 276-511); gp67 signal peptide (N); made in house; host or cells: HiFive Trichoplusia ni insect cells (baculovirus)
T3 sequence (Q99466 276-511): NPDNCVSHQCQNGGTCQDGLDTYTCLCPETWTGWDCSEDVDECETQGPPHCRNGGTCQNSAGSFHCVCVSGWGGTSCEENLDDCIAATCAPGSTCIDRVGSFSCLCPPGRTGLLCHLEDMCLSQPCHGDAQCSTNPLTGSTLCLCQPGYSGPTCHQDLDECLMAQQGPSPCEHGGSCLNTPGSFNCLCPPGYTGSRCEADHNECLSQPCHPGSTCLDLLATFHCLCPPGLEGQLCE
Procedure: as §1

mouse Notch1 (EGF6-13) = molecular target: T4, mouse Notch1 (EGF6-13) (Mus musculus, UniProt Q01705); experiment: as above; assay type: binding; conditions: mNotch1 EGF6-13; read-out: dissociation constant (KD)
T4 construct: mouse Notch1 (EGF6-13, residues 221-526); gp67 signal peptide (N); made in house; host or cells: HiFive Trichoplusia ni insect cells (baculovirus)
T4 sequence (Q01705 221-526): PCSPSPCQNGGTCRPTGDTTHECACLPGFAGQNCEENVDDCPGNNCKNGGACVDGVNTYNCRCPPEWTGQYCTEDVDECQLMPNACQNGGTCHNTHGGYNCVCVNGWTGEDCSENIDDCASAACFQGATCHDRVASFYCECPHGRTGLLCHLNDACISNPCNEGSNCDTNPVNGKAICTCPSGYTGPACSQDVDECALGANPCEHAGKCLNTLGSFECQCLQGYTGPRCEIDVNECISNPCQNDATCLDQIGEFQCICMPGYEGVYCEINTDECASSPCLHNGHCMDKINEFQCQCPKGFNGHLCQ
Procedure: as §1

endogenous Notch1 = molecular target: T5, endogenous Notch1 (Homo sapiens, UniProt P46531); experiment: Western blot for cleaved Notch1 ICD in U2OS and MCF-7 cells; assay type: cell-based; conditions: 50 nM C-terminally anchored, 24 hours
T5 construct: cells expressing endogenous levels of Notch1; endogenous in cells; host or cells: U2OS; MCF-7
Procedure: For Notch activation in U2OS and MCF-7 cells, WT DLL4 and Delta^MAX biotinylated ligands were immobilized at 50 nM in 6-well streptavidin-coated plates following a scaled-up protocol of the one described before. After 24 hours of stimulation, cells were lysed in Laemmli […] buffer (40% glycerol, 4% SDS, 250 mM Tris-HCl, 0.02% bromophenol blue, and 20% β-mercaptoethanol). Cell lysates were heated at 100° C. for 5 min, centrifuged at 21,000×g for 10 min at 4° C., and supernatants stored at −20° C. Proteins were separated by SDS-PAGE (12% Mini-PROTEAN TGX Precast Protein Gels, Bio-Rad) and transferred to PVDF membranes using an iBlot2 Gel Transfer Device (Thermo Fisher Scientific). The membranes were blocked in 3% BSA+0.1% TBS-Tween. Primary antibodies were anti-cleaved Notch1 (Val1744 rabbit mAb, Cell Signaling Technology, 1:1,000), and β-Actin (rabbit pAb, Cell Signaling Technology, 1:1,000). Secondary antibody anti-Rabbit IgG conjugated to HRP (Goat mAb, Vector Laboratories, 1:8,000) was used for detection of proteins using SuperSignal West Pico PLUS Chemiluminescent Substrate (Thermo Fisher Scientific). Images were acquired using an Amersham Imager 600 (GE Healthcare), and contrast adjusted with a curves layer.

[1] = SPR, 25° C., ligand N-EGF5, read-out: dissociation constant (KD)

T5 sequence (P46531 19-2555): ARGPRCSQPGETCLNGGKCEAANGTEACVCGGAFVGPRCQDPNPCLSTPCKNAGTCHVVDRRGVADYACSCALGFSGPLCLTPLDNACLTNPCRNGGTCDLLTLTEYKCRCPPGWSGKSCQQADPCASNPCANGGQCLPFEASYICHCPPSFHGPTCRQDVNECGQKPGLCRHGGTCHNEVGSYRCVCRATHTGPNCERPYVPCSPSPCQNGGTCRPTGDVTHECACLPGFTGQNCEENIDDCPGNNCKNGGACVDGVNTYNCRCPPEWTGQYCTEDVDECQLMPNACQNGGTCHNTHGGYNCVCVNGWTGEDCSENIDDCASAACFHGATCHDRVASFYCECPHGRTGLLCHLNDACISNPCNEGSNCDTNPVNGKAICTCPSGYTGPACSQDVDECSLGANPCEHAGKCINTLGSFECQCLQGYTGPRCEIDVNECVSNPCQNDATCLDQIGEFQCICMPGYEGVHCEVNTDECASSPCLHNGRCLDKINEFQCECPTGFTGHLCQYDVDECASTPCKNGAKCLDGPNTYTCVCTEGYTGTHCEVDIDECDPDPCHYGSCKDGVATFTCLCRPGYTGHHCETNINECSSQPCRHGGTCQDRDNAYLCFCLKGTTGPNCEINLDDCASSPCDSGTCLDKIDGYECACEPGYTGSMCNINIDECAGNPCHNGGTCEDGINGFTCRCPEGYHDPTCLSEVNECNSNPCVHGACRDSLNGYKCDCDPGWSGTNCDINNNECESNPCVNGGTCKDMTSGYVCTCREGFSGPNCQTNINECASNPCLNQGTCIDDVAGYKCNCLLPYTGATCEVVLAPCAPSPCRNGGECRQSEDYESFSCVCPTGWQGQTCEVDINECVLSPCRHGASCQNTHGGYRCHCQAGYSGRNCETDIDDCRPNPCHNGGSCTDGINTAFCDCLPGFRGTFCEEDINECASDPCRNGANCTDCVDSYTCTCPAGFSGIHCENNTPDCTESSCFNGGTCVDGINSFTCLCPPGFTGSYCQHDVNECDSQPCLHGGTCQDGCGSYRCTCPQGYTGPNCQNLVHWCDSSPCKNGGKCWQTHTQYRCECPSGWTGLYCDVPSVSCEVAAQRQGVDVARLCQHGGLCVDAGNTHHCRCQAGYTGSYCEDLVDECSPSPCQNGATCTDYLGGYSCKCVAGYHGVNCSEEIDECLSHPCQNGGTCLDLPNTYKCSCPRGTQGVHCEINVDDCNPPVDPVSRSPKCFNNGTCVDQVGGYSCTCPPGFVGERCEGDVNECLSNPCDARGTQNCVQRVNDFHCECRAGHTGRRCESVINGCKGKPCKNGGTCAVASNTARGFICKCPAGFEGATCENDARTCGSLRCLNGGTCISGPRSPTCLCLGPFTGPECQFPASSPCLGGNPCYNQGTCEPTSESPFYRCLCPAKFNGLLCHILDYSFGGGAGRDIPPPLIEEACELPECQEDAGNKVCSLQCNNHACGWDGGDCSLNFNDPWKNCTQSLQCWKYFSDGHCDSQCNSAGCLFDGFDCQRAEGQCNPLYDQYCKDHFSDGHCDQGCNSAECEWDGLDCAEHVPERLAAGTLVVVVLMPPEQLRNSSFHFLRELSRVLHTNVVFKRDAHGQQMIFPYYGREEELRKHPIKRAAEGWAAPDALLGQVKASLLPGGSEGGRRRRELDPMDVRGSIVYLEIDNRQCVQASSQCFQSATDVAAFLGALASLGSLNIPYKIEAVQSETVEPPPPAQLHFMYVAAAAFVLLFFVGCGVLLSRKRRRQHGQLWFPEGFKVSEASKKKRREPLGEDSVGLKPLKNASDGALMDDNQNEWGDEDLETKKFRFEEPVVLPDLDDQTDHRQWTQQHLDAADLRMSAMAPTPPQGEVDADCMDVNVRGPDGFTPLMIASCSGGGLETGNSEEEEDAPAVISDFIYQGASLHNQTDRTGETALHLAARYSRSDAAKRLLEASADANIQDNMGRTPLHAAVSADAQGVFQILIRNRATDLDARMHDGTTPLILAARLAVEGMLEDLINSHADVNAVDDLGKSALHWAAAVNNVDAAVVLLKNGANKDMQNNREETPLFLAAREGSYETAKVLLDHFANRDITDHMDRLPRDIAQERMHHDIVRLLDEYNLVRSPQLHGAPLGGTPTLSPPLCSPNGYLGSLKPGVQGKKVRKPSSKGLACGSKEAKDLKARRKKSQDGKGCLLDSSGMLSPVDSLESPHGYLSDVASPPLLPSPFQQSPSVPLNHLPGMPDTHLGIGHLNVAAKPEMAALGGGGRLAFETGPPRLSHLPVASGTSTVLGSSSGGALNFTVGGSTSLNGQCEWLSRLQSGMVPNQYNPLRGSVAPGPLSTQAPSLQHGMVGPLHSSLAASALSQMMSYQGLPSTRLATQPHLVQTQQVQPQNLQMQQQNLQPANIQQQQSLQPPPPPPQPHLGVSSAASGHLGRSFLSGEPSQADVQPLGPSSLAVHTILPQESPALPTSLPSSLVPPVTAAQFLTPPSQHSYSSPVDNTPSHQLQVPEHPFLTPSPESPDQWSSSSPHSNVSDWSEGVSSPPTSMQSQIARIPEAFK

B1: Delta^MAX: engineered human DLL4 consensus variant with 10 mutations combining DLL4.v1 and DLL4.v2 mutations; sequence matches SEQ ID NO: 4/10 (protein)
chain: SSVFQLQLQEFINERGVLASGRPCEPGCRTFFRVCLKHFQAVVSPGPCTFGTVSTPVLGTNSFAVRDDSSGGGRNPLQLPLNFTWPGTFSLIIEAWHAPGDDLRPEALPPDALISKFAIQGSLAVGQNWLLDEQTSTLTRLRYSYRVICSDNYYGDNCSRLCKKRNDYFGHYVCQPDGNPSCLPGWTGEYCQQPICLSGCHEQNGYCSKPAECLCRPGWQGRLCNECIPHPGCRHGTCSTPWQCLCDEGWGGLYCDQDLNYCTHHSPCKNGATCRNSGPRSYTCTCRPGYTGVDCELELSECDSNPCRNGGSCKDQEDGYHCLCPPGYYGLHCEHSTLSCADSPCFNGGSCRERNQGANYACECPPNFTGSNCE
With B1 the “enhancement of affinity compared to WT DLL4” value (Notch2 (EGF6-13); Notch2) was 670 fold, the Kd (Notch2 (EGF6-13); [1]) was 54 nM and the “enhancement of affinity compared to WT DLL4” value (Notch3 (EGF5-12); Notch3) was 591 fold. For the same molecule, the Kd (Notch3 (EGF5-12); [1]) was 49 nM, the “enhancement of affinity compared to WT DLL4” value (Notch4 (7-12)) was 532 fold and the Kd (mouse Notch1 (EGF6-13)) was 25 nM. The “Notch1 activation (cleaved Notch1 ICD) vs WT DLL4” value (endogenous Notch1; MCF-7 cells) was “much more potently” and the “Notch1 activation (cleaved Notch1 ICD) vs WT DLL4” value (endogenous Notch1; U2OS cells) was “much more potently”.
